From PMC4119481 come the findings set out here.

The target in the assay is T1, IFN regulatory factor 3 (mouse (endogenous in BMDMs)), P70671.
T1 chain: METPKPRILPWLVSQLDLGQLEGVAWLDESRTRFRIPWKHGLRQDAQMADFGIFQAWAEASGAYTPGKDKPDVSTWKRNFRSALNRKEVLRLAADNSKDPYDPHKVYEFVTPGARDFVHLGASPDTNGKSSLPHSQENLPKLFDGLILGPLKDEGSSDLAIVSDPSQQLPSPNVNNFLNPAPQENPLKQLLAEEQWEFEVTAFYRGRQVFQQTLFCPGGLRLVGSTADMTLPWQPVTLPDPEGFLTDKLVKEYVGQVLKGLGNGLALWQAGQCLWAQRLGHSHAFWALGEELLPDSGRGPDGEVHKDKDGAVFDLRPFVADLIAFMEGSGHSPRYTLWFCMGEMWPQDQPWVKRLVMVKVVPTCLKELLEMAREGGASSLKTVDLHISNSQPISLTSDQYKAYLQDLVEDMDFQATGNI
Nature of the assay: native gel or EMSA. To be noted: remark: other sources report otherwise.

As a reminder, the stoichiometry N is the number of molecules, sites or subunits per partner or assembly.

B1: IFN regulatory factor 3, P70671 1-419 (natural protein)
chain: T1 chain
As to B1, the stoichiometry N is 2.
